# Test results from article PMC9266650 (2022).
# Read-outs that look alike come from different tables or passages of the source.
# Key:
# [1] = molecular target: T1, T148-ADP-ribosylated-actin (100% TccC3-ADP-ribosylated actin) ( (purified from rabbit or …, UniProt P68135 1-377)); test: FP
# [2] = molecular target: T2, Skeletal actin, unmodified (0% ADPR-actin control) ( (purified from rabbit or …, UniProt P68135 1-377))
# [3] = molecular target: T1, T148-ADP-ribosylated-actin (100% …)
# [4] = molecular target: T2, Skeletal actin, unmodified (0% …); test: FP
binder,measurement,setting,value
SDKPDMAEIEKFDKSKLKKTETQEKNPLPSKETIEQEKQAGES (not fully specified; ADP-ribose on threonine-148 (T148)),Kd,[1],2440 nM
Actin-depolymerizing factor (natural protein) MASGVQVADEVCRIFYDMKVRKCSTPEEIKKRKKAVIFCLSADKKCIIVEEGKEILVGDVGVTITDPFKHFVGMLPEKDCRYALYDASFETKESRKEELMFFLWAPELAPLKSKMIYASSKDAIKKKFQGIKHECQANGPEDLNRACIAEKLGGSLIVAFEGCPV,Kd,[2],21.6 nM
same,Kd,[3],331 nM
SDKPDMAEIEKFDKSKLKKTETQEKNPLPSKETIEQEKQAGES (not fully specified),Kd,[4],380 nM
